Laboratory results taken from US20030165887A1 (BURNHAM INSTITUTE, published 2003).

Experiments:
Assay in all cases: co-immunoprecipitation, transfected HEK293T cells, SDS-PAGE/immunoblot
cIAP1 = cIAP1 (UniProt Q13490 1-618, limits assumed)
Procedure: (§1) The TUCAN polypeptides were expressed by transient transfection in HEK293T cells together with epitope-tagged pro-caspase-9 or other proteins. […] Cell lysates were prepared from transfected cells and immunoprecipitations were performed using anti-Flag or anti-Myc antibodies, followed by SDS-PAGE/immunoblot analysis.

Apaf1 = molecular target: T1, Apaf1 (human, UniProt O14727 1-1248)
T1 sequence: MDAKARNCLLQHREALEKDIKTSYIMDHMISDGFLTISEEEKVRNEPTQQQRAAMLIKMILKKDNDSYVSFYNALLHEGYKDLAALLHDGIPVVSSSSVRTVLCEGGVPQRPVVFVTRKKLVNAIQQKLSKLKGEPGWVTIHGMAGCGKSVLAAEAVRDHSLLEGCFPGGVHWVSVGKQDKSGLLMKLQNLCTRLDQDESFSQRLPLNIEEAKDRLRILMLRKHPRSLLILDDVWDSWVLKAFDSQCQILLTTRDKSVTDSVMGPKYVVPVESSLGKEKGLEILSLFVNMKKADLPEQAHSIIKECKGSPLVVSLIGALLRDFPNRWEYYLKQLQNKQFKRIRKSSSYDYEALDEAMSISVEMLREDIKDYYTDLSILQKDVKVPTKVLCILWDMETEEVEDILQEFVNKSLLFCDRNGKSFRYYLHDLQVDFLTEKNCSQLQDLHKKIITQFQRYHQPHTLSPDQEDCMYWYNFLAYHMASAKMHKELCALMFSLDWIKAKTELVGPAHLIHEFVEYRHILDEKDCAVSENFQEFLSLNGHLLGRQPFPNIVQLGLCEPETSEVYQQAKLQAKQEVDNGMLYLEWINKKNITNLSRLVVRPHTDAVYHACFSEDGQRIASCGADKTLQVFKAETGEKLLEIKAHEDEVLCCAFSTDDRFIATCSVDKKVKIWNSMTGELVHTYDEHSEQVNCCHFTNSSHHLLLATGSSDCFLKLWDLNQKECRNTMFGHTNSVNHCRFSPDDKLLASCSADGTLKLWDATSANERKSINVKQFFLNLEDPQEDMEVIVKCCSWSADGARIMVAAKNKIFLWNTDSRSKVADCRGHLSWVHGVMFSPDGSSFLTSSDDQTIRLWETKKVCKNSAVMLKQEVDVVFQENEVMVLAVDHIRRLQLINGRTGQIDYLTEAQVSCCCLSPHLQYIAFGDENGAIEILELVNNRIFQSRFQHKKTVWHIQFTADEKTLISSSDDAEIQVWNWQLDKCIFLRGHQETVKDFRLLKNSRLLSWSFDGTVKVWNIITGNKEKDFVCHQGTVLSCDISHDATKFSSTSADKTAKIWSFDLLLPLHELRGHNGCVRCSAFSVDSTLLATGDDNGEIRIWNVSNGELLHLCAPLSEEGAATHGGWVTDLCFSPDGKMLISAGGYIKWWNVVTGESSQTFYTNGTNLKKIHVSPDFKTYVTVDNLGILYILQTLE
Procedure: as §1

cIAP2 = cIAP2 (Homo sapiens (Human), UniProt Q13489 1-604)
Procedure: as §1

pro-caspase-10 = molecular target: T2, pro-caspase-10 (UniProt Q92851 1-521, limits assumed)
T2 sequence (looked up): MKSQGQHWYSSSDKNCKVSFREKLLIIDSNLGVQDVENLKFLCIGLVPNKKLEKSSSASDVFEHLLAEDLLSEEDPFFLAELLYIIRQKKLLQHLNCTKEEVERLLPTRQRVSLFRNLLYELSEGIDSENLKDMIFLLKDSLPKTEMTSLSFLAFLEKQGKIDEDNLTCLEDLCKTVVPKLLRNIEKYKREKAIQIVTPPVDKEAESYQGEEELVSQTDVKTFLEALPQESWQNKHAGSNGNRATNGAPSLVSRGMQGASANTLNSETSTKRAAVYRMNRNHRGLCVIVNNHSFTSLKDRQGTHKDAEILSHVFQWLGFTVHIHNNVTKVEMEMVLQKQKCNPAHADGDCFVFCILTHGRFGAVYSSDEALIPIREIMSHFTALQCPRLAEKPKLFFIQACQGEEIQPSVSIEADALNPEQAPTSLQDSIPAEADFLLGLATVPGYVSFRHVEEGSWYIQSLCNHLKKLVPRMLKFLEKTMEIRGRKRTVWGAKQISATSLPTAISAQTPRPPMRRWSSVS
Procedure: as §1

CED4 = molecular target: T3, CED4 (UniProt P30429 1-549, limits assumed)
T3 sequence (looked up): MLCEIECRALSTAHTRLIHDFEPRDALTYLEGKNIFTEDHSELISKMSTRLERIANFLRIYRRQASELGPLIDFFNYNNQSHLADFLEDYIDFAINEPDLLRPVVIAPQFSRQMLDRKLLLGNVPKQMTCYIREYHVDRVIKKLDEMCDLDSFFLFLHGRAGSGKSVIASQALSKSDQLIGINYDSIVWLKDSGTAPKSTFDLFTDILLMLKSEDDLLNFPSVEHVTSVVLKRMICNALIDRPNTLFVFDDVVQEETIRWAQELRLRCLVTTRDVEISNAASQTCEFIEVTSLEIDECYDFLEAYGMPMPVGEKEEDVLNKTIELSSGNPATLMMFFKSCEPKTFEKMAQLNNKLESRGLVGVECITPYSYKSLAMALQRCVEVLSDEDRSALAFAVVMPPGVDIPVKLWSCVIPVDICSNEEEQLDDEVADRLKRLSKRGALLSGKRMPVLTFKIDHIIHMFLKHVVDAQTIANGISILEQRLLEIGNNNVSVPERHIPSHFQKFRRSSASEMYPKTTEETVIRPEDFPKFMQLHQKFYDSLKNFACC
Procedure: as §1

Measured: binding result

Sequence of cIAP2 (Q13489 whole entry): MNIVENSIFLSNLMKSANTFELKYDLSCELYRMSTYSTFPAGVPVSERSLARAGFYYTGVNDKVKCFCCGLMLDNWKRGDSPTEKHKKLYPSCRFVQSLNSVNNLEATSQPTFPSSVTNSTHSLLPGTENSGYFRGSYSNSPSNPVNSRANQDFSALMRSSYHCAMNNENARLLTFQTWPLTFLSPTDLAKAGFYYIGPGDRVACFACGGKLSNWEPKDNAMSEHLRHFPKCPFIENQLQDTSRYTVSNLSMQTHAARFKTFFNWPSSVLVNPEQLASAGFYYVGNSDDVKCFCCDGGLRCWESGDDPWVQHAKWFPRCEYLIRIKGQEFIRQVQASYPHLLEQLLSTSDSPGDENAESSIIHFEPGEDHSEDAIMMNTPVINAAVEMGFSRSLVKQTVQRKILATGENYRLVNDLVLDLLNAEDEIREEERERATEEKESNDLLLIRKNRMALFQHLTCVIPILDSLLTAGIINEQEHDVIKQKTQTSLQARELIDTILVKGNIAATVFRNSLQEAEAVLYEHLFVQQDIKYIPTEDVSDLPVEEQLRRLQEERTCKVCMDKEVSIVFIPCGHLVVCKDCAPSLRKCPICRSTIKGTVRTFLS
Sequence of cIAP1 (Q13490 whole entry): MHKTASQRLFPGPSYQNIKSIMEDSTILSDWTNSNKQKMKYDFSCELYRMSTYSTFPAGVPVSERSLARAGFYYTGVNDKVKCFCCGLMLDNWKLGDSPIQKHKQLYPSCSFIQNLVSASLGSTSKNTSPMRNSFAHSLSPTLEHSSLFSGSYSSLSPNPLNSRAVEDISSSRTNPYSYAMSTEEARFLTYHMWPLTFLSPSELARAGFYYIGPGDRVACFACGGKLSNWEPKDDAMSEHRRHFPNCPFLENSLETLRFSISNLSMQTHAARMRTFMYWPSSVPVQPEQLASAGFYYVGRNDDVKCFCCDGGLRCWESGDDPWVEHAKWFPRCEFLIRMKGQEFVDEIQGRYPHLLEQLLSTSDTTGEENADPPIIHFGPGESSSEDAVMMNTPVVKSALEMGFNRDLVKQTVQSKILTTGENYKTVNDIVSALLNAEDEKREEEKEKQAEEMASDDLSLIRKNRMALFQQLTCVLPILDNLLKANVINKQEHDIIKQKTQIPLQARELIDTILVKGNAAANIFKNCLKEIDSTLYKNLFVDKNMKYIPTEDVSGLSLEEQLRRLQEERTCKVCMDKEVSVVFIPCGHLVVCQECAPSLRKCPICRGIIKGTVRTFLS

B1: TUCAN (Tumor Up-regulated CARD-containing Antagonist of Caspase Nine), full-length (other)
chain: MMRQRQSHYCSVLFLSVNYLGGTFPGDICSEENQIVSSYASKVCFEIEEDYKNRQFLGPEGNVDVELIDKSTNRYSVWFPTAGWYLWSATGLGFLVRDEVTVTIAFGSWSQHLALDLQHHEQWLVGGPLFDVTAEPEEAVAEIHLPHFISLQGEVDVSWFLVAHFKNEGMVLEHPARVEPFYAVLESPSFSLMGILLRIASGTRLSIPITSNTLIYYHPHPEDIKFHLYLVPSDALLTKAIDDEEDRFHGVRLQTSPPMEPLNFGSSYIVSNSANLKVMPKELKLSYRSPGEIQHFSKFYAGQMKEPIQLEITEKRHGTLVWDTEVKPVDLQLVAASAPPPFSGAAFVKENHRQLQARMGDLKGVLDDLQDNEVLTENEKELVEQEKTRQSKNEALLSMVEKKGDLALDVLFRSISERDPYLVSYLRQQNL
notes: Full-length TUCAN expressed by transient transfection in HEK293T cells; also called full-length TUCAN; CARD-X
no binding: cIAP1 | Apaf1 | cIAP2 | pro-caspase-10 | CED4
